Measured values reported in patent publication US20190194714A1, “REAGENT FOR GLUCOSE SENSOR, GLUCOSE SENSOR, METHOD FOR MANUFACTURING GLUCOSE SENSOR, AND GLUCOSE MEASURING DEVICE” (NATIONAL INSTITUTE OF ADVANCED INDUSTRIAL SCIENCE AND …, priority 2016, published 2019).
Values belong to the molecule of their own block, whether it stands above or below them.

Tests used:
[1] = system: Aspergillus terreus var. aureus FAD-GDH (flavin adenine dinucleotide glucose dehydrogenase), enzyme No. 1, host Pichia pastoris; experiment: Michaelis constant of FAD-GDH enzyme No. 1; assay type: biochemical; settings: 110 kDa
[2] = substrate: OC[C@H]1OC(O)[C@H](O)[C@@H](O)[C@@H]1O; experiment: Michaelis constant of FAD-GDH enzyme No. 2; assay type: biochemical, Thermoascus crustaceus; settings: other: enzyme No. 2, host Escherichia coli, 60 kDa
[3] = substrate: OC[C@H]1OC(O)[C@H](O)[C@@H](O)[C@@H]1O; experiment: Michaelis constant of FAD-GDH enzyme No. 3; assay type: biochemical, Thermoascus crustaceus; settings: other: enzyme No. 3, host Pichia pastoris, 90 kDa
[4] = substrate: OC[C@H]1OC(O)[C@H](O)[C@@H](O)[C@@H]1O; experiment: Michaelis constant of FAD-GDH enzyme No. 4; assay type: biochemical, Thermoascus crustaceus; settings: other: enzyme No. 4, host Saccharomyces cerevisiae, 90 kDa

- Km [1]: 82 mM
Molecule: OC[C@H]1OC(O)[C@H](O)[C@@H](O)[C@@H]1O (stereo partly shown) [glucose]

B1: Thermoascus crustaceus FAD-GDH (flavin adenine dinucleotide glucose dehydrogenase), enzyme No. 2, host Escherichia coli (Thermoascus crustaceus) (protein)
chain: TSYDYIIVGGGTSGLVVANRLSEDSSVSVLVVEAGDSVYNNPNVTGTGAYGAAFGTSIDWAYQTIKQPYAGDLTQTIRAGKALGGTSTINGMAYTRAEDVQIDAWEAIGNQGWNWSTLFPYYLKSERFQIPINAQSAAGANWNPAYHGMNGPLTTGWTYEMMNGSMAEVLNATYQNLGISYLPDVNGGKMHGYTLFPRTVNRALDVREDAARAYYYPFESSRPNLSVMLNTYGNRIVWANATNTNSVTATGVEVTLSDGTVQTIQANKEVILSAGSLISPAILERSGVGNPTVLSRFGIPLVVNLTTVGENLQDQMNTEFIYLSNATFSGQSTFLGHPTAADLFGSNVTNVAKSVQSSLPHYAATVSEASNGTMSAAVLQKLFQLQYNIIFNNPTPIAEILVAPSGSKFITEYWALLPFARGNVHIGSANPLDRPVINPNYMMFEWDMQEQIASGKFVRKLYGTAPFTNWATGEATPGYSTLPANATDGQWAQWISSVSRSNFHPVGTAAMMPRDMGGVVDSNLVVYGTNNVRVIDASVLPLQVCGHLVSTLYAVAERASDLIKAGQV
- Km [2]: 4.6 mM

B2: Thermoascus crustaceus FAD-GDH (flavin adenine dinucleotide glucose dehydrogenase), enzyme No. 3, host Pichia pastoris (Thermoascus crustaceus) (protein)
chain: TSYDYIIVGGGTSGLVVANRLSEDSSVSVLVVEAGDSVYNNPNVTGTGAYGAAFGTSIDWAYQTIKQPYAGDLTQTIRAGKALGGTSTINGMAYTRAEDVQIDAWEAIGNQGWNWSTLFPYYLKSERFQIPINAQSAAGANWNPAYHGMNGPLTTGWTYEMMNGSMAEVLNATYQNLGISYLPDVNGGKMHGYTLFPRTVNRALDVREDAARAYYYPFESSRPNLSVMLNTYGNRIVWANATNTNSVTATGVEVTLSDGTVQTIQANKEVILSAGSLISPAILERSGVGNPTVLSRFGIPLVVNLTTVGENLQDQMNTEFIYLSNATFSGQSTFLGHPTAADLFGSNVTNVAKSVQSSLPHYAATVSEASNGTMSAAVLQKLFQLQYNIIFNNPTPIAEILVAPSGSKFITEYWALLPFARGNVHIGSANPLDRPVINPNYMMFEWDMQEQIASGKFVRKLYGTAPFTNWATGEATPGYSTLPANATDGQWAQWISSVSRSNFHPVGTAAMMPRDMGGVVDSNLVVYGTNNVRVIDASVLPLQVCGHLVSTLYAVAERASDLIKAGQV
- Km [3]: 2.8 mM

B3: Thermoascus crustaceus FAD-GDH (flavin adenine dinucleotide glucose dehydrogenase), enzyme No. 4, host Saccharomyces cerevisiae (Thermoascus crustaceus) (protein)
chain: TSYDYIIVGGGTSGLVVANRLSEDSSVSVLVVEAGDSVYNNPNVTGTGAYGAAFGTSIDWAYQTIKQPYAGDLTQTIRAGKALGGTSTINGMAYTRAEDVQIDAWEAIGNQGWNWSTLFPYYLKSERFQIPINAQSAAGANWNPAYHGMNGPLTTGWTYEMMNGSMAEVLNATYQNLGISYLPDVNGGKMHGYTLFPRTVNRALDVREDAARAYYYPFESSRPNLSVMLNTYGNRIVWANATNTNSVTATGVEVTLSDGTVQTIQANKEVILSAGSLISPAILERSGVGNPTVLSRFGIPLVVNLTTVGENLQDQMNTEFIYLSNATFSGQSTFLGHPTAADLFGSNVTNVAKSVQSSLPHYAATVSEASNGTMSAAVLQKLFQLQYNIIFNNPTPIAEILVAPSGSKFITEYWALLPFARGNVHIGSANPLDRPVINPNYMMFEWDMQEQIASGKFVRKLYGTAPFTNWATGEATPGYSTLPANATDGQWAQWISSVSRSNFHPVGTAAMMPRDMGGVVDSNLVVYGTNNVRVIDASVLPLQVCGHLVSTLYAVAERASDLIKAGQV
- Km [4]: 3.2 mM
